Consider 4 molecules from publication PMC10046861, “Linker Length Drives Heterogeneity of Multivalent Complexes of Hub Protein LC8 and Transcription Factor ASCIZ” (Biomolecules, 2023).

“And” between values parts separate entries of the source, which are not always exact repeats. Equal entries are not always repeated.

B1: Drosophila LC8 (natural protein)
chain: MSDRKAVIKNADMSEEMQQDAVDCATQALEKYNIEKDIAAYIKKEFDKKYNPTWHCIVGRNFGSYVTHETRHFIYFYLGQVAILLFKSG
notes: LC8 hub protein (dynein light chain LC8) of Drosophila; folds as a homodimer; tag cleaved by TEV protease; also called LC8 dimer; source: E. coli Rosetta (DE3), purified (TALON, anion exchange, Superdex 75 gel filtration)
B3: Drosophila ASCIZ QT2–4 (residues 271–341) (domain or fragment, UniProt Q9VZU1 271-341, looked up)
chain: EVLAPLLRDIETQTPDTRGDIGTMTDDFPEEQEPVAVGSHFHAYSETEPMFDLQTSAHMYTQTCDDLFEEL
notes: also called wildtype QT2–4; intact QT2–4 construct; source: E. coli Rosetta (DE3), purified under denaturing conditions (TALON, anion exchange, gel filtration)

For data set [1], the target named is QT2,3 (QT2–4 double-site variant, motifs QT2 and QT3 intact) (Drosophila) (UniProt Q9VZU1). Nature of the data set: native MS; native ESI-MS; LC8 mixed with double-site QT variant at 2:1 LC8:QT, overnight at 4 °C; 25 µM total protein and dilutions to 500 nM; 200 mM ammonium acetate, pH 7.4. The settings on record: scale: LC8 chains per variant chain.
Data set [2] addresses QT3,4 (QT2–4 double-site variant, motifs QT3 and QT4 intact) (Drosophila) (UniProt Q9VZU1). The description is as above. Particulars: scale: LC8 chains per variant chain.
Data set [3] has as its target QT2,4 (QT2–4 double-site variant, motifs QT2 and QT4 intact) (Drosophila) (UniProt Q9VZU1). The description is as above. Particulars: scale: LC8 chains per variant chain.
For data set [4], the target named is QT2,3 (QT2–4 double-site variant, motifs QT2 and QT3 intact) (Drosophila) (UniProt Q9VZU1). In words: ITC; LC8 (400–500 µM) in the syringe titrated into QT variant (20–50 µM) in the cell; 25 °C; 50 mM sodium phosphate, 50 mM NaCl, 1 mM sodium azide, 5 mM β-mercaptoethanol, pH 7.5; single set of sites fit, for double-site variants also sequential binding sites (SBS) and two sets of sites (TSS) fits.

Data set [5] deals with QT3,4 (QT2–4 double-site variant, motifs QT3 and QT4 intact) (Drosophila) (UniProt Q9VZU1). The data set is described as above.
Data set [6] deals with the molecule itself. In words: native MS; native ESI-MS of the individual proteins (25 µM; dilution series); 200 mM ammonium acetate, pH 7.4.
For data set [7], the target named is B3. In words: SEC-MALS; 90 µM QT2–4 or QT4–6 mixed with 300 µM LC8 (1:3.3); Superdex200 10/300 GL, room temperature; 50 mM sodium phosphate, 0.4 M NaCl, 1 mM NaN3, 5 mM β-mercaptoethanol, pH 7.5. Particulars: both partners purified.
For data set [8], the target named is QT2 (QT2–4 single-site variant, only motif QT2 intact) (Drosophila) (UniProt Q9VZU1). In words: ITC; LC8 (400–500 µM) in the syringe titrated into QT variant (20–50 µM) in the cell; 25 °C; 50 mM sodium phosphate, 50 mM NaCl, 1 mM sodium azide, 5 mM β-mercaptoethanol, pH 7.5; single set of sites fit, for double-site variants also sequential binding sites (SBS) and two sets of sites (TSS) fits. (In general: ITC needs no label: the signal is the heat of the interaction.)

Data set [9] addresses QT2,4 (QT2–4 double-site variant, motifs QT2 and QT4 intact) (Drosophila) (UniProt Q9VZU1). Described as above.
Data set [10] addresses QT4 (QT2–4 single-site variant, only motif QT4 intact) (Drosophila) (UniProt Q9VZU1). The description is as above.
Data set [11] addresses B1. The description is as above. Particulars: both partners purified.
In data set [12] the target is B1. Nature of the data set: negative-stain electron microscopy; images of a QT2–4/LC8 mixture; strings of LC8 dimers counted in 50 images. The settings on record: both partners purified.

As a reminder, the stoichiometry N is the number of molecules, sites or subunits per partner or assembly. As to “Drosophila LC8 (from UniProt Q24117 1-89) (natural protein)”, the stoichiometry N in data set [1] was 2 (2×) and 4 and 3; in data set [2], 2 (2×) and 4 and 3; in data set [3], 2 (2×) and 4 and 3. Besides, the fold stabilisation of the stronger site (QT2) against its single-site variant, two sets of sites fit in [4] came to 7 fold. Moreover, the fold stabilisation of the weaker site (QT3) against its single-site variant, two sets of sites fit in data set [4] was found to be 2 fold. Moreover, the N of site QT3, two sets of sites fit in [5] amounted to 0.2.
A word on the Kd: it is the constant that tells how readily two partners part at equilibrium. B1: the “stoichiometry N” value in data set [6] came to 2. Also, the “stoichiometry N” value in data set [7] was 1 LC8 chains per QT2–4 chain (2 QT2–4 chains, 2 LC8 chains). In [8], this molecule returned a Kd of 9.3 µM and a dH of -10.7 kcal/mol. In [5], this molecule registered a Kd of the second (weaker) site, QT3, sequential binding sites fit of 40 µM and a Kd of the second (weaker) site, QT3, two sets of sites fit of 25.7 µM. In data set [9], the N of site QT4, two sets of sites fit was 0.6 and the fold increase in affinity of site QT4 against the single-site variant QT4, sequential binding sites fit was found to be 5 fold. In data set [10], this molecule showed a Kd of 15 µM and a dH of -16.1 kcal/mol.

B2: QT3 (QT2–4 single-site variant, only motif QT3 intact) (domain or fragment)
chain: EVLAPLLRDIEAAAPDTRGDIGTMTDDFPEEQEPVAVGSHFHAYSETEPMFDLQTSAHMYAAACDDLFEEL
modifications: Anchor positions are not printed. They were deduced from 8-residue motifs ending in the anchor, linkers of 3 and 30 residues, and 9 residues after QT4; the wild-type letters must match the entry …
Regarding B2, the Kd with Drosophila LC8 [11] is 36 µM.
With B3, the binding result with Drosophila LC8 [12] is listed as “binds”.
